± gives the standard deviation of the averaged measurements.
Assay: total protein half-life in vivo (active degradation + dilution); higher = more stable protein
[1] = E. coli NCM3722 delta-clpP delta-lon delta-hslV, growth: N-lim chemostat, doubling time 6 h
[2] = E. coli NCM3722 delta-clpP, growth: N-lim chemostat, doubling time 6 h
[3] = E. coli NCM3722 delta-hslV, growth: N-lim chemostat, doubling time 6 h
[4] = E. coli NCM3722 delta-lon, growth: N-lim chemostat, doubling time 6 h
[5] = E. coli NCM3722 delta-smpB, growth: N-lim chemostat, doubling time 6 h
[6] = wild type E. coli NCM3722, growth: C-lim chemostat, doubling time 3 h
[7] = wild type E. coli NCM3722, growth: C-lim chemostat, doubling time 6 h
[8] = wild type E. coli NCM3722, growth: C-lim chemostat, doubling time 12 h
[9] = wild type E. coli NCM3722, growth: N-lim chemostat, doubling time 6 h
[10] = wild type E. coli NCM3722, growth: N-lim chemostat, doubling time 12 h
[11] = wild type E. coli NCM3722, growth: P-lim chemostat, doubling time 6 h
[12] = wild type E. coli NCM3722, growth: P-lim chemostat, doubling time 12 h

Sequence	total protein half-life in vivo [1] [h]	total protein half-life in vivo [2] [h]	total protein half-life in vivo [3] [h]	total protein half-life in vivo [4] [h]	total protein half-life in vivo [5] [h]	total protein half-life in vivo [6] [h]	total protein half-life in vivo [7] [h]	total protein half-life in vivo [8] [h]	total protein half-life in vivo [9] [h]	total protein half-life in vivo [10] [h]	total protein half-life in vivo [11] [h]	total protein half-life in vivo [12] [h]
MSVIKMTDLDLAGKRVFIRADLNVPVKDGKVTSDARIRASLPTIELALKQGAKVMVTSHLGRPTEGEYNEEFSLLPVVNYLKDKLSNPVRLVKDYLDGVDVAEGELVVLENVRFNKGEKKDDETLSKKYAALCDVFVMDAFGTAHRAQASTHGIGKFADVACAGPLLAAELDALGKALKEPARPMVAIVGGSKVSTKLTVLDSLSKIADQLIVGGGIANTFIAAQGHDVGKSLYEADLVDEAKRLLTTCNIPVPSDVRVATEFSETAPATLKSVNDVKADEQILDIGDASAQELAEILKNAKTILWNGPVGVFEFPNFRKGTEIVANAIADSEAFSIAGGGDTLAAIDLFGIADKISYISTGGGAFLEFVEGKVLPAVAMLEERAKK [P0A799]	5.45 ± 0.47	5.27 ± 0.49	4.91 ± 0.11	5.68 ± 0.45	4.66 ± 0.14	3.28 ± 0.049	6.24 ± 0.46	12.8 ± 0.99	4.92 ± 0.11	8.6 ± 0.45	5.69 ± 0.4	12 ± 0.29
MSVLQVLHIPDERLRKVAKPVEEVNAEIQRIVDDMFETMYAEEGIGLAATQVDIHQRIIVIDVSENRDERLVLINPELLEKSGETGIEEGCLSIPEQRALVPRAEKVKIRALDRDGKPFELEADGLLAICIQHEMDHLVGKLFMDYLSPLKQQRIRQKVEKLDRLKARA [P0A6K3]	5.89 ± 0.28	4.94 ± 1.4	3.19 ± 0.11	3.686 ± 0.032	2.84 ± 0.43	2.6 ± 0.4	3.936 ± 0.014	6.33 ± 0.35	3.12 ± 0.3	4.58 ± 0.57	4.29	8.94 ± 0.6
MSVPLILTILAGAATFIGAFLGVLGQKPSNRLLAFSLGFAAGIMLLISLMEMLPAALAAEGMSPVLGYGMFIFGLLGYFGLDRMLPHAHPQDLMQKSVQPLPKSIKRTAILLTLGISLHNFPEGIATFVTASSNLELGFGIALAVALHNIPEGLAVAGPVYAATGSKRTAILWAGISGLAEILGGVLAWLILGSMISPVVMAAIMAAVAGIMVALSVDELMPLAKEIDPNNNPSYGVLCGMSVMGFSLVLLQTAGIG [P0A8H3]	1.91	1.38	1.59 ± 0.2	2.14 ± 0.3	1.65 ± 0.083	0.41	0.83		1.7	2.45		
MSVPVQHPMYIDGQFVTWRGDAWIDVVNPATEAVISRIPDGQAEDARKAIDAAERAQPEWEALPAIERASWLRKISAGIRERASEISALIVEEGGKIQQLAEVEVAFTADYIDYMAEWARRYEGEIIQSDRPGENILLFKRALGVTTGILPWNFPFFLIARKMAPALLTGNTIVIKPSEFTPNNAIAFAKIVDEIGLPRGVFNLVLGRGETVGQELAGNPKVAMVSMTGSVSAGEKIMATAAKNITKVCLELGGKAPAIVMDDADLELAVKAIVDSRVINSGQVCNCAERVYVQKGIYDQFVNRLGEAMQAVQFGNPAERNDIAMGPLINAAALERVEQKVARAVEEGARVAFGGKAVEGKGYYYPPTLLLDVRQEMSIMHEETFGPVLPVVAFDTLEDAISMANDSDYGLTSSIYTQNLNVAMKAIKGLKFGETYINRENFEAMQGFHAGWRKSGIGGADGKHGLHEYLQTQVVYLQS	4.75 ± 0.26	4.93 ± 1	3.81 ± 0.14	4.56 ± 0.062	4.55 ± 0.52	3.19 ± 0.26	5.86 ± 0.33	10.24 ± 0.092	4.82 ± 1.6	5.01 ± 1.9	5.871 ± 0.049	11.3 ± 0.13
MSVRLVLAKGREKSLLRRHPWVFSGAVARMEGKASLGETIDIVDHQGKWLARGAYSPASQIRARVWTFDPSESIDIAFFSRRLQQAQKWRDWLAQKDGLDSYRLIAGESDGLPGITIDRFGNFLVLQLLSAGAEYQRAALISALQTLYPECSIYDRSDVAVRKKEGMELTQGPVTGELPPALLPIEEHGMKLLVDIQHGHKTGYYLDQRDSRLATRRYVENKRVLNCFSYTGGFAVSALMGGCSQVVSVDTSQEALDIARQNVELNKLDLSKAEFVRDDVFKLLRTYRDRGEKFDVIVMDPPKFVENKSQLMGACRGYKDINMLAIQLLNEGGILLTFSCSGLMTSDLFQKIIADAAIDAGRDVQFIEQFRQAADHPVIATYPEGLYLKGFACRVM	5.39 ± 0.22	5.51 ± 0.19	5.55 ± 0.16	6.51 ± 0.56	5.25 ± 0.27	3.02 ± 0.1	6.57 ± 0.19	11.32 ± 0.082	6.03 ± 0.6	11.3 ± 1.5	6.28 ± 1.2	13.1 ± 1.7
MSVSAFNRRWAAVILEALTRHGVRHICIAPGSRSTPLTLAAAENSAFIHHTHFDERGLGHLALGLAKVSKQPVAVIVTSGTAVANLYPALIEAGLTGEKLILLTADRPPELIDCGANQAIRQPGMFASHPTHSISLPRPTQDIPARWLVSTIDHALGTLHAGGVHINCPFAEPLYGEMDDTGLSWQQRLGDWWQDDKPWLREAPRLESEKQRDWFFWRQKRGVVVAGRMSAEEGKKVALWAQTLGWPLIGDVLSQTGQPLPCADLWLGNAKATSELQQAQIVVQLGSSLTGKRLLQWQASCEPEEYWIVDDIEGRLDPAHHRGRRLIANIADWLELHPAEKRQPWCVEIPRLAEQAMQAVIARRDAFGEAQLAHRICDYLPEQGQLFVGNSLVVRLIDALSQLPAGYPVYSNRGASGIDGLLSTAAGVQRASGKPTLAIVGDLSALYDLNALALLRQVSAPLVLIVVNNNGGQIFSLLPTPQSERERFYLMPQNVHFEHAAAMFELKYHRPQNWQELETAFADAWRTPTTTVIEMVVNDTDGAQTLQQLLAQVSHL	6.1 ± 0.64	5.37 ± 0.1	5.38 ± 0.24		5.01 ± 0.12	3.27 ± 0.59	6.66 ± 0.06	12.2 ± 1.8	5.89 ± 0.76	12.3 ± 1.8	6.81 ± 0.65	
MSWQEKINAALDARRAADALRRRYPVAQGAGRWLVADDRQYLNFSSNDYLGLSHHPQIIRAWQQGAEQFGIGSGGSGHVSGYSVVHQALEEELAEWLGYSRALLFISGFAANQAVIAAMMAKEDRIAADRLSHASLLEAASLSPSQLRRFAHNDVTHLARLLASPCPGQQMVVTEGVFSMDGDSAPLAEIQQVTQQHNGWLMVDDAHGTGVIGEQGRGSCWLQKVKPELLVVTFGKGFGVSGAAVLCSSTVADYLLQFARHLIYSTSMPPAQAQALRASLAVIRSDEGDARREKLAALITRFRAGVQDLPFTLADSCSAIQPLIVGDNSRALQLAEKLRQQGCWVTAIRPPTVPAGTARLRLTLTAAHEMQDIDRLLEVLHGNG	4.06 ± 0.98	3.57 ± 0.11	3.29 ± 0.14	3.88 ± 0.17	3.54 ± 0.15	3.07 ± 0.22	5.16 ± 0.21	8.97 ± 0.33	3.58 ± 0.21	5.24 ± 0.38	5.643 ± 0.044	10.9 ± 0.2
MSWQQFKHAWLIKFWAPIPAVIAAGILSTYYFGITGTFWAVTGEFTRWGGQLLQLFGVHAEEWGYFKIIHLEGSPLTRIDGMMILGMFGGCFAAALWANNVKLRMPRSRIRIMQAIIGGIIAGFGARLAMGCNLAAFFTGIPQFSLHAWFFAIATAIGSWFGARFTLLPIFRIPVKMQKVSAASPLTQKPDQARRRFRLGMLVFFGMLGWALLTAMNQPKLGLAMLFGVGFGLLIERAQICFTSAFRDMWITGRTHMAKAIIIGMAVSAIGIFSYVQLGVEPKIMWAGPNAVIGGLLFGFGIVLAGGCETGWMYRAVEGQVHYWWVGLGNVIGSTILAYYWDDFAPALATDWDKINLLKTFGPMGGLLVTYLLLFAALMLIIGWEKRFFRRAAPQTAKEIA		1.86	2.16		3.67		4.44 ± 0.089	6.8 ± 1.4	3.69		2.95	
MSYPLFDKDEHWHKPEQAFLTDDHRTILRFAVEALMSGKGAVLVTLVEIRGGAARPLGAQMVVREDGRYCGFVSGGCVEAAAAFEALEMMGSGRDREIRYGEGSPWFDIVLPCGGGITLTLHKLRSAQPLLAVLNRLEQRKPVGLRYDPQAQSLVCLPTQTRTGWNLNGFEVGFRPCVRLMIYGRSLEAQATASLAAATGYDSHIFDLFPASASAQIDTDTAVILLCHDLNRELPVLQAAREAKPFYLGALGSYRTHTLRLQKLHELGWSREETTQIRAPVGIFPKARDAHTLALSVLAEVASVRLHQEEDSCLPPSS	5.9 ± 0.33											
MTAELLVNVTPSETRVAYIDGGILQEIHIEREARRGIVGNIYKGRVSRVLPGMQAAFVDIGLDKAAFLHASDIMPHTECVAGEEQKQFTVRDISELVRQGQDLMVQVVKDPLGTKGARLTTDITLPSRYLVFMPGASHVGVSQRIESESERERLKKVVAEYCDEQGGFIIRTAAEGVGEAELASDAAYLKRVWTKVMERKKRPQTRYQLYGELALAQRVLRDFADAELDRIRVDSRLTYEALLEFTSEYIPEMTSKLEHYTGRQPIFDLFDVENEIQRALERKVELKSGGYLIIDQTEAMTTVDINTGAFVGHRNLDDTIFNTNIEATQAIARQLRLRNLGGIIIIDFIDMNNEDHRRRVLHSLEQALSKDRVKTSVNGFSALGLVEMTRKRTRESIEHVLCNECPTCHGRGTVKTVETVCYEIMREIVRVHHAYDSDRFLVYASPAVAEALKGEESHSLAEVEIFVGKQVKVQIEPLYNQEQFDVVMM [P0A9J0]	3.85 ± 0.3	2.58 ± 0.087	3.04 ± 0.55	3.28 ± 0.38	2.62 ± 0.21	3.09 ± 0.69	4.36 ± 0.16	8.57 ± 0.57	2.6 ± 0.14	3.45 ± 0.073	5.69 ± 0.42	10.35 ± 0.087
MTAINRILIVDDEDNVRRMLSTAFALQGFETHCANNGRTALHLFADIHPDVVLMDIRMPEMDGIKALKEMRSHETRTPVILMTAYAEVETAVEALRCGAFDYVIKPFDLDELNLIVQRALQLQSMKKEIRHLHQALSTSWQWGHILTNSPAMMDICKDTAKIALSQASVLISGESGTGKELIARAIHYNSRRAKGPFIKVNCAALPESLLESELFGHEKGAFTGAQTLRQGLFERANEGTLLLDEIGEMPLVLQAKLLRILQEREFERIGGHQTIKVDIRIIAATNRDLQAMVKEGTFREDLFYRLNVIHLILPPLRDRREDISLLANHFLQKFSSENQRDIIDIDPMAMSLLTAWSWPGNIRELSNVIERAVVMNSGPIIFSEDLPPQIRQPVCNAGEVKTAPVGERNLKEEIKRVEKRIIMEVLEQQEGNRTRTALMLGISRRALMYKLQEYGIDPADV	5.23 ± 2.1	3.82	2.7	3.5	2.912 ± 0.0036	3.09 ± 0.26	5.56 ± 0.094	10.6 ± 2.5	3.16		4.99 ± 0.19	10.9 ± 1.7
MTAPLTLLIVEDETPLAEMHAEYIRHIPGFSQILLAGNLAQARMMIERFKPGLILLDNYLPDGRGINLLHELVQAHYPGDVVFTTAASDMETVSEAVRCGVFDYLIKPIAYERLGQTLTRFRQRKHMLESIDSASQKQIDEMFNAYARGEPKDELPTGIDPLTLNAVRKLFKEPGVQHTAETVAQALTISRTTARRYLEYCASRHLIIAEIVHGKVGRPQRIYHSG [P0AEF4]	4.85	3.389 ± 0.03	3.43		3.22	2.24	5.33	8.21	3 ± 0.62	5.34 ± 0.18	3.33 ± 0.5	7.63 ± 0.19
MTATAQQLEYLKNSIKSIQDYPKPGILFRDVTSLLEDPKAYALSIDLLVERYKNAGITKVVGTEARGFLFGAPVALGLGVGFVPVRKPGKLPRETISETYDLEYGTDQLEIHVDAIKPGDKVLVVDDLLATGGTIEATVKLIRRLGGEVADAAFIINLFDLGGEQRLEKQGITSYSLVPFPGH		4.03 ± 0.92	4.32 ± 0.47	4.33 ± 0.17	3.58 ± 0.46		4.57 ± 0.87	8.09 ± 0.39	5.06 ± 1	6.92 ± 0.095	5.1 ± 0.18	10.9 ± 0.8
MTDKMQSLALAPVGNLDSYIRAANAWPMLSADEERALAEKLHYHGDLEAAKTLILSHLRFVVHIARNYAGYGLPQADLIQEGNIGLMKAVRRFNPEVGVRLVSFAVHWIKAEIHEYVLRNWRIVKVATTKAQRKLFFNLRKTKQRLGWFNQDEVEMVARELGVTSKDVREMESRMAAQDMTFDLSSDDDSDSQPMAPVLYLQDKSSNFADGIEDDNWEEQAANRLTDAMQGLDERSQDIIRARWLDEDNKSTLQELADRYGVSAERVRQLEKNAMKKLRAAIEA [P0AGB3]	0.775 ± 0.044											0.858

Source: the supplement of paper PMC11246515
